Source: patent US20230322958A1 (Genentech, published 2023)

T1: huNotch2-EGF6-10 (human, UniProt Q04721 219-418)
T1 construct: also called human Notch2 EGF6-10
T1 sequence: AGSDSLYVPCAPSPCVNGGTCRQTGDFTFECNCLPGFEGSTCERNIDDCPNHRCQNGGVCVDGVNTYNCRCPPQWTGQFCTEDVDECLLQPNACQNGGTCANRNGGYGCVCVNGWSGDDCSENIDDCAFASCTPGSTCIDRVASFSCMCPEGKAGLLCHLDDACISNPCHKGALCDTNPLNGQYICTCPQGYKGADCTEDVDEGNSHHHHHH

B1: 1B2.v104.huFab.LC_K149C (Fab, V domains shown)
VH: EVQLVESGGGLVQPGGSLKLSCAVSGFTFSDFYMEWVRQASGKGLEWVAAQRNKANDFSIVYSASVKDRFTISRDDSKSTLYLQMNSLKTEDTAVYYCSRDGGKLALDAWGQGTLVTVSS
VL: DIQMTQSPSSVSASVGDRVTITCQTSEDIYSGLAWYQQKPGKSPKLLIYGASRLQDGVPSRFSGSGSGTDYTLTISSLQPEDFATYYCQQGFKYPLTFGGGTKVEIKR
B2: 1B2.v104.huFab.LC_K149C.dPEG6_dimer (other)
heavy: EVQLVESGGGLVQPGGSLKLSCAVSGFTFSDFYMEWVRQASGKGLEWVAAQRNKANDFSIVYSASVKDRFTISRDDSKSTLYLQMNSLKTEDTAVYYCSRDGGKLALDAWGQGTLVTVSSASTKGPSVFPLAPSSKSTSGGTAALGCLVKDYFPEPVTVSWNSGALTSGVHTFPAVLQSSGLYSLSSVVTVPSSSLGTQTYICNVNHKPSNTKVDKKVEPKSCD
light: DIQMTQSPSSVSASVGDRVTITCQTSEDIYSGLAWYQQKPGKSPKLLIYGASRLQDGVPSRFSGSGSGTDYTLTISSLQPEDFATYYCQQGFKYPLTFGGGTKVEIKRTVAAPSVFIFPPSDEQLKSGTASVVCLLNNFYPREAKVQWCVDNALQSGNSQESVTEQDSKDSTYSLSSTLTLSKADYEKHKVYACEVTHQGLSSPVTKSFNRGEC
modifications: engineered Cys (K149C) joined through maleimide to Bis-Mal-PEG6
B3: 1B2.v104.huFab.LC_K149C.dPEG_4-arm-Mal-3kD (other)
heavy: EVQLVESGGGLVQPGGSLKLSCAVSGFTFSDFYMEWVRQASGKGLEWVAAQRNKANDFSIVYSASVKDRFTISRDDSKSTLYLQMNSLKTEDTAVYYCSRDGGKLALDAWGQGTLVTVSSASTKGPSVFPLAPSSKSTSGGTAALGCLVKDYFPEPVTVSWNSGALTSGVHTFPAVLQSSGLYSLSSVVTVPSSSLGTQTYICNVNHKPSNTKVDKKVEPKSCD
light: DIQMTQSPSSVSASVGDRVTITCQTSEDIYSGLAWYQQKPGKSPKLLIYGASRLQDGVPSRFSGSGSGTDYTLTISSLQPEDFATYYCQQGFKYPLTFGGGTKVEIKRTVAAPSVFIFPPSDEQLKSGTASVVCLLNNFYPREAKVQWCVDNALQSGNSQESVTEQDSKDSTYSLSSTLTLSKADYEKHKVYACEVTHQGLSSPVTKSFNRGEC
modifications: engineered Cys (K149C) joined through maleimide to a 4-arm maleimide dPEG linker (3 kD)
B4: 1B2.v104.huFab.LC_K149C.dPEG11_dimer (other)
heavy: EVQLVESGGGLVQPGGSLKLSCAVSGFTFSDFYMEWVRQASGKGLEWVAAQRNKANDFSIVYSASVKDRFTISRDDSKSTLYLQMNSLKTEDTAVYYCSRDGGKLALDAWGQGTLVTVSSASTKGPSVFPLAPSSKSTSGGTAALGCLVKDYFPEPVTVSWNSGALTSGVHTFPAVLQSSGLYSLSSVVTVPSSSLGTQTYICNVNHKPSNTKVDKKVEPKSCD
light: DIQMTQSPSSVSASVGDRVTITCQTSEDIYSGLAWYQQKPGKSPKLLIYGASRLQDGVPSRFSGSGSGTDYTLTISSLQPEDFATYYCQQGFKYPLTFGGGTKVEIKRTVAAPSVFIFPPSDEQLKSGTASVVCLLNNFYPREAKVQWCVDNALQSGNSQESVTEQDSKDSTYSLSSTLTLSKADYEKHKVYACEVTHQGLSSPVTKSFNRGEC
modifications: engineered Cys (K149C) joined through maleimide to Bis-Mal-PEG11
B5: 1B2.v104.huFab.LC_K149C.dPEG19_dimer (other)
heavy: EVQLVESGGGLVQPGGSLKLSCAVSGFTFSDFYMEWVRQASGKGLEWVAAQRNKANDFSIVYSASVKDRFTISRDDSKSTLYLQMNSLKTEDTAVYYCSRDGGKLALDAWGQGTLVTVSSASTKGPSVFPLAPSSKSTSGGTAALGCLVKDYFPEPVTVSWNSGALTSGVHTFPAVLQSSGLYSLSSVVTVPSSSLGTQTYICNVNHKPSNTKVDKKVEPKSCD
light: DIQMTQSPSSVSASVGDRVTITCQTSEDIYSGLAWYQQKPGKSPKLLIYGASRLQDGVPSRFSGSGSGTDYTLTISSLQPEDFATYYCQQGFKYPLTFGGGTKVEIKRTVAAPSVFIFPPSDEQLKSGTASVVCLLNNFYPREAKVQWCVDNALQSGNSQESVTEQDSKDSTYSLSSTLTLSKADYEKHKVYACEVTHQGLSSPVTKSFNRGEC
modifications: engineered Cys (K149C) joined through maleimide to Bis-Mal-PEG19
B6: 1B2.v104.huFab.LC_K149C.PEG_6-arm-Mal-6kD (other)
heavy: EVQLVESGGGLVQPGGSLKLSCAVSGFTFSDFYMEWVRQASGKGLEWVAAQRNKANDFSIVYSASVKDRFTISRDDSKSTLYLQMNSLKTEDTAVYYCSRDGGKLALDAWGQGTLVTVSSASTKGPSVFPLAPSSKSTSGGTAALGCLVKDYFPEPVTVSWNSGALTSGVHTFPAVLQSSGLYSLSSVVTVPSSSLGTQTYICNVNHKPSNTKVDKKVEPKSCD
light: DIQMTQSPSSVSASVGDRVTITCQTSEDIYSGLAWYQQKPGKSPKLLIYGASRLQDGVPSRFSGSGSGTDYTLTISSLQPEDFATYYCQQGFKYPLTFGGGTKVEIKRTVAAPSVFIFPPSDEQLKSGTASVVCLLNNFYPREAKVQWCVDNALQSGNSQESVTEQDSKDSTYSLSSTLTLSKADYEKHKVYACEVTHQGLSSPVTKSFNRGEC
modifications: engineered Cys (K149C) joined through maleimide to 6ARM(DP)-MAL-6000
B7: 1B2.v104.huFab.LC_K149C.PEG_4-arm-Mal-10kD (other)
heavy: EVQLVESGGGLVQPGGSLKLSCAVSGFTFSDFYMEWVRQASGKGLEWVAAQRNKANDFSIVYSASVKDRFTISRDDSKSTLYLQMNSLKTEDTAVYYCSRDGGKLALDAWGQGTLVTVSSASTKGPSVFPLAPSSKSTSGGTAALGCLVKDYFPEPVTVSWNSGALTSGVHTFPAVLQSSGLYSLSSVVTVPSSSLGTQTYICNVNHKPSNTKVDKKVEPKSCD
light: DIQMTQSPSSVSASVGDRVTITCQTSEDIYSGLAWYQQKPGKSPKLLIYGASRLQDGVPSRFSGSGSGTDYTLTISSLQPEDFATYYCQQGFKYPLTFGGGTKVEIKRTVAAPSVFIFPPSDEQLKSGTASVVCLLNNFYPREAKVQWCVDNALQSGNSQESVTEQDSKDSTYSLSSTLTLSKADYEKHKVYACEVTHQGLSSPVTKSFNRGEC
modifications: engineered Cys (K149C) joined through maleimide to a 4-arm maleimide PEG linker (10 kD)
B8: hu1B2.L1H1.DFS (antibody, V domains shown)
VH: EVQLVESGGGLVQPGGSLKLSCAVSGFTFSDFYMEWIRQASGKGLEWIAASRNKANDFSIVYSASVKDRFTISRDTSKSTLYLQMNSLKTEDTAVYYCSRDSGRWGLDAWGQGTLVTVSS
VL: DIQMTQSPSSVSASVGDRVTITCQTSEDIYSGLAWYQQKPGKSPKLLIYGASRLQDGVPSRFSGSGSGTDYTLTISSLQPEDFATYFCQQGFKYPLTFGGGTKVEIK
notes: Human IgG1 backbone; also called hu1B2.v1.DFS
B9: rat.1B2 (rat/human chimeric anti-Notch2 antibody 1B2) (antibody, V domains shown)
VH: EVKLVDYGGGLVQPGASLRLSCEVSGFTFSDFYMEWIRQAPGKGLEWIAASRNKANNFSIVYSASVKDRFTISRDTYKSILYLQMSTLKPEDTAVYYCSRDSGRWGLDAWGQGTSVIVSS
VL: DIQMTQSPASLSASLGETVTIQCQTSEDIYSGLAWYHQKPGKSPQLLIYGASRLQDGVPSRFTGSGSGTQYSLKISSMQTEDEGVYFCQQGFKYPLTFGSGTKLEIK
notes: also called 1B2 Chimeric; chimeric 1B2
B10: rb.2621 (rabbit/human chimeric anti-Notch2 antibody 2621) (antibody, V domains shown)
VH: QSLEESGGGLVQPGASLTLTCTASGFSFSSGYDMCWVRQAPGKGLEWIACIVTVSGNTYYASWAKGRFTISKTSSTTVTLQMTSLTAADTATYFCARDGGFTDTWYFHLWGPGTLVTVSS
VL: AYDMTQTPASVEVAVGGTVTIKCQASESIGSYLAWYQQKPGQPPKLLIYRASTLASGVPSRFKGSGSGTEFTLTISGVQCDDAATYYCQQTYSGAGVDNLFGGGTKVEIK
B11: rb.2430 (rabbit/human chimeric anti-Notch2 antibody 2430) (antibody, V domains shown)
VH: QSVEESGGRLVTPGTPLTLTCTVSGFSLSSYDMSWVRQAPGKGLEWIGIIQAGSNTLFYASWAKGRFTISKTSTTVDLKITSPTTEDTATYFCARGGVIFIIGHFNLWGPGTLVTVSS
VL: AQVLTQTASSVSAAVGGTVTINCQASQSVVNNRLAWYQQKPGQPPKLLMYGASTLESGVSSRFKGSGSGTQFTLTISGVQCDDAATYYCQGEFLCSSGDCVAFGGGTKVEIK
B12: rb.2338 (rabbit/human chimeric anti-Notch2 antibody 2338) (antibody, V domains shown)
VH: QSLEESGGDLVKPGASLTLTCTASGFSFSSGYDMCWVRQAPGKGLEWIACIYAGSEGFTYYASWAKGRFTISKSSSTTVTLQMTSLTVADTATYFCARWTDSDGSNLWGPGTLVTVSS
VL: DVVMTQTPASVEAAVGGTVTIKCQASQSISSYLAWYQQKPGQPPKLLIYRASKLASGVPSRFSGRGSGTQFTLTISDLECADAATYYCQSNSYGNNWVGGFGGGTKVEIK

target: T2, human Notch2 on U-87 MG cells (human, UniProt Q04721 26-2471); experiment: cell-based or functional assay
T2 sequence (Q04721 26-2471): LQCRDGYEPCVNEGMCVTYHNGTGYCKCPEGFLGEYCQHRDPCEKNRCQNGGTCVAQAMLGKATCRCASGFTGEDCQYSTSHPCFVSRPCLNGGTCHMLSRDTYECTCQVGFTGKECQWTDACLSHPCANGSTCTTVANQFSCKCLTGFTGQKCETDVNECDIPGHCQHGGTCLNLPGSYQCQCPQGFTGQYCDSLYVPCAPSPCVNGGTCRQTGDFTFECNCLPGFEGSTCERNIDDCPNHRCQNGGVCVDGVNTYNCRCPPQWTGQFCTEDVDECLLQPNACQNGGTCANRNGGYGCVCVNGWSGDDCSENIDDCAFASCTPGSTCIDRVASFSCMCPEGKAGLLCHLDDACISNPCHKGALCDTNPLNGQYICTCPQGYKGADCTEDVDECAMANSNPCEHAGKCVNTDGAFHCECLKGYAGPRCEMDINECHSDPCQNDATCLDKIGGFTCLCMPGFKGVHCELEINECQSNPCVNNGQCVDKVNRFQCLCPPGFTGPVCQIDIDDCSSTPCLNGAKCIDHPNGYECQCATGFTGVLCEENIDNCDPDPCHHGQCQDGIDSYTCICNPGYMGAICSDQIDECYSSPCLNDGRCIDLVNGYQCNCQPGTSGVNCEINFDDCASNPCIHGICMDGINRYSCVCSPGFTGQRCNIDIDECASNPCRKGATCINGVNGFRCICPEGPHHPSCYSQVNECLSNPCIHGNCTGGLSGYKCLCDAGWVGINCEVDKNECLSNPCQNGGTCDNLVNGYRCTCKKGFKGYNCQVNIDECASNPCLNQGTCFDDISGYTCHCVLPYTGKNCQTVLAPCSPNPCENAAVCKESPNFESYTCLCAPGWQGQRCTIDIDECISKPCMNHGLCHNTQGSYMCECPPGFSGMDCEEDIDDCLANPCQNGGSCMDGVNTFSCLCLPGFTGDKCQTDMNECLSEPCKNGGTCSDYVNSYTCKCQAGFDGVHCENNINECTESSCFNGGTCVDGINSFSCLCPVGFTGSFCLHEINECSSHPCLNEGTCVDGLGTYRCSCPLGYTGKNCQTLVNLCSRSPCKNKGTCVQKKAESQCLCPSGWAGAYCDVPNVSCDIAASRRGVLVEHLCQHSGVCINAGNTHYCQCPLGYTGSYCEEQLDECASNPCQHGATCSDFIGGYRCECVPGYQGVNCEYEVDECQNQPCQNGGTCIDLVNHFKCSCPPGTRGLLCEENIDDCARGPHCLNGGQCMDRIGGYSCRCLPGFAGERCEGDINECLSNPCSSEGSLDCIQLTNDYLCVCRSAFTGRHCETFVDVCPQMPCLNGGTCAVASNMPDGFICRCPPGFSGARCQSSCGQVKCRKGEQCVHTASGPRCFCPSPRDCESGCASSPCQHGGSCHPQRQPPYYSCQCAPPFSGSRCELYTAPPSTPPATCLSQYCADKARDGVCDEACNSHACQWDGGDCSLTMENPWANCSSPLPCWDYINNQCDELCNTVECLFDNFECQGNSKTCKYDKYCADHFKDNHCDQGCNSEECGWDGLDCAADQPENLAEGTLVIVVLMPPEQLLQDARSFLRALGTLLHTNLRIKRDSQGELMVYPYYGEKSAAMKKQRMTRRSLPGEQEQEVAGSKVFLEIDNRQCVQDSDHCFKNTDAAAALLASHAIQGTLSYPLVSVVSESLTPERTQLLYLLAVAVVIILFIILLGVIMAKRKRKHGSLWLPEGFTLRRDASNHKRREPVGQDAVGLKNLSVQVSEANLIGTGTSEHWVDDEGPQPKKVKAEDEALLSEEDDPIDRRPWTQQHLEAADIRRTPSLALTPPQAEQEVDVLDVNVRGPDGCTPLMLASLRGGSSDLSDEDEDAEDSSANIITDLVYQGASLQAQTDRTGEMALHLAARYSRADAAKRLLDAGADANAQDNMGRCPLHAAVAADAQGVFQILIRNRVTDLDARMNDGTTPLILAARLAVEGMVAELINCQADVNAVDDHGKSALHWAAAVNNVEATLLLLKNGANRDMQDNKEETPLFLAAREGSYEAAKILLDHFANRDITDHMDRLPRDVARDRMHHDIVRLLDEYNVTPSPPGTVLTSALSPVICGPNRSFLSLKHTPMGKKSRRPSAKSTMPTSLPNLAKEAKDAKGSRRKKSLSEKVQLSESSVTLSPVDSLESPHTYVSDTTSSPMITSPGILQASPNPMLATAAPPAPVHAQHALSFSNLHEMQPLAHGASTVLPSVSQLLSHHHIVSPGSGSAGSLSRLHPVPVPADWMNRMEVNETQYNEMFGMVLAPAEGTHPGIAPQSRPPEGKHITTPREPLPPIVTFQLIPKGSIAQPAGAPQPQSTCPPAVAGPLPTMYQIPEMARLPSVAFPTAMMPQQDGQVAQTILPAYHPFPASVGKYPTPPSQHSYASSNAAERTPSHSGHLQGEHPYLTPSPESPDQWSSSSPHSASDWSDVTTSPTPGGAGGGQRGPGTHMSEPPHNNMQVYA

| Binder | DLL Inhibition (IC50) [nM] | Jag1 Inhibition (IC50) [nM] |
| --- | --- | --- |
| B1 | 50 | 120 |
| B2 | > 1000 | – |
| B3 | > 500 | 0.35 |
| B4 | > 1000 | – |
| B5 | > 1000 | – |
| B6 | > 400 | 0.21 |
| B7 | > 500 | 0.27 |

target: T1, huNotch2-EGF6-10; experiment: SPR BIAcore T200, antibody captured on protein A, 37 C
Experimental: The binding affinities of the antibodies was determined by BIAcore™ T200 machine. Rabbit antibodies were expressed as chimeric antibodies with rabbit variable domains and human constant domains. Rat antibodies were expressed as chimeric antibodies with rat variable domains and human constant regions. Humanized antibodies were expressed in the human IgG1 backbone. For kinetics measurements, antibodies were captured on research grade protein A chip (GE Healthcare) to achieve approximately 300 RU. Ten-fold serial dilutions of huNotch2-EGF6-10 were injected in HBS-P buffer with additional 3 mM CaCl₂ at 37° C. with a flow rate of 100 μL/min. Association rates (ka) and dissociation rates (kd) were calculated using a 1:1 Langmuir binding model (BIAcore™ T200 Evaluation Software version 2.0). The equilibrium dissociation constant (KD) was calculated as the ratio kd/ka.

| Binder | Kd [nM] | koff [s⁻¹] | kon [M⁻¹ s⁻¹] |
| --- | --- | --- | --- |
| B8 | 5.15 | 0.00116 | 226000 |
| B9 | 5.21 | 0.000943 | 181000 |

target: T2, human Notch2 on U-87 MG cells; experiment: cell-based or functional assay; remark: another data set of the same source

| Binder | Jagged1 IC50 [nM] |
| --- | --- |
| B8 | 7.9 |
| B10 | 0.667 |
| B11 | 1.03 |
| B12 | 3.53 |
| B9 | 12.5 |
